In article PMC7801428 (Nature Communications, 2021) one finds Kd data, which are given here for one molecule.

This test concerns the target SARS-CoV-2 S trimer (stabilized S ectodomain, residues 1-1208, proline substitutions at 986 and 987, GSAS at … (SARS-CoV-2, Wuhan-Hu-1, proline substitution at residue 986 | proline substitution at residue 987 | …, biotin (EZ-Link Sulfo-NHS-LC-LC-Biotin) in the BLI experiments; not labelled for cryo-EM). Put plainly: BLI. The note with it: both partners purified.

Usually Kd stands for the constant that tells how readily two partners part at equilibrium.

B1: human-mouse chimeric antibody 3C1 (c3C1) (antibody, V domains shown)
VH: EVQLQESGPSLVKPSQTLSLTCSVTGDSITNGYWNWIRKFPGNKLEYMGYISYSGSTYYSPSLKSRISITRDTSKNQHYLQLNSVTSEDTATYYCASDYHGSKYYFDYWGQGTTLTVSS
VL: DIVMTQSHKFMSTSVGHRVSITCKASQDVGNDVAWYQQKPGQSPKLLIYWASTRHTGVPDRFTGSGSGTDFTLTISNVQSEDLADYFCQQYNRYPYTFGGGTKLEIK
notes: also called chimeric MAb c3C1
For B1, the equilibrium dissociation constant (Kd) was < 1 pM.
